“Also recorded” adds a separate entry of the source. Residues, ends and D or L forms follow the SMILES beside them. No end group written: not given here.
Experiments:
[1] = target: T1, PD-L1 proteins (Homo sapiens, UniProt Q9NZQ7); assay: Surface plasmon resonance (SPR) binding to immobilized PD-L1
T1 construct: purchased R&D systems
Procedure: Surface plasma resonance (SPR). SPR analysis was done using a BIAcore™ X (Pharmacia Biosensor AB, Uppsala, Sweden). In short, PD-L1 proteins (R&D systems) were immobilized onto carboxylated dextran-coated gold film surface of sensor chip (CM5 sensor chip, GE Healthcare) through EDC/NHS chemistry. 30 μL of sample solution was injected at a flow rate of […]. Sample solution was allowed to flow into both channels (channel 1 for reference, channel 2 with PD-L1), and the final SPR sensorgrams were obtained by subtracting the […].

[2] = target: fβH2_mt/PD-L1 complex (Homo sapiens, UniProt Q9NZQ7); assay: Fluorescence polarization (FP) competition assay; format: binding; details: 10 nM, PD-L1, 2 μM, FIG. 15
Sequence of fβH2_mt/PD-L1 complex (Q9NZQ7 19-239 limits assumed, one chain of several): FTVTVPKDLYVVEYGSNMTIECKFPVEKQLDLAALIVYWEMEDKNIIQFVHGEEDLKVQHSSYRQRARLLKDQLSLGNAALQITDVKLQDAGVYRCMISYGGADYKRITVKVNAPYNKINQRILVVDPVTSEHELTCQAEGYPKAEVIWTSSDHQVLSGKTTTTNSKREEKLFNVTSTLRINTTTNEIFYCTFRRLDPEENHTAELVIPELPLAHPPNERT
Procedure: Fluorescence polarization (FP) assay. FP assay in PBS was used the PD-L1 binding and competition assays (λex=480 nm; λem=535 nm). Fluorescence anisotropy measurements were performed at room temperature, in a 384-well plate, and using an Infinite® M1000 Pro microplate reader (Tecan). A fβH2_mt/PD-L1 complex was used for the FP competition assay after 30 min incubation time and titrated with the competitors.

[3] = test system: 786-O cells (a PD-L1 overexpressing cell line); assay: Fluorescence microscopy of cell interaction, 786-O cells; format: cell-based, Human
Procedure: (§1) Cell culture. Human renal cell carcinoma (RCC) cell line, 786-O, and breast cancer cell line, MCF-7, were utilized as high- and low-PD-L1 expressing cancer cell models, respectively. The human T lymphocyte cell line, Jurkat, was used in this study as a representative PD-1-expressing immune cells. 786-O and Jurkat T cells were cultured in RPMI media, while MCF-7 cells were grown in DMEM media. All cell culture media were supplemented with 1% (v/v) penicillin/streptomycin (P/S) and 10% (v/v) fetal bovine serum (FBS). Cells were incubated under humidified atmosphere containing 5% CO2 at 37° C.

[4] = test system: MCF-7 cells (with a low level of PD-L1 expression); assay: Fluorescence microscopy of cell interaction, MCF-7 cells; format: cell-based, Human; details: treated 1 h
Procedure: as §1

[5] = test system: 786-O cells; assay: Chemosensitivity assay with doxorubicin in cancer cell/Jurkat T cell co-culture; format: cell-based, Human; details: 786-O cells co-cultured with Jurkat T cells, then DOX; FIG. 22
Procedure: as §1
Chemosensitivity Assay. Chemosensitivity assay was performed by measuring the synergistic cytotoxicity effect of immune checkpoint inhibitors, together with chemotherapeutic drug, doxorubicin. Cancer cells were plated in 96-well plates (5,000 cells/well) and incubated for 48 h. Cancer cells and Jurkat T cells were pre-treated with IFNγ and PHA/PMA as aforementioned. Cancer cells were then stained with calcein AM (1.5 μM), followed by 2 h treatment with ICIS. The cells were co-cultured for another 24 h in a 1:4 ratio, prior to doxorubicin (5 μM) treatment. The effect of each ICI on cancer cell survival following doxorubicin treatment (2 h) was analyzed based on changes in fluorescent intensity.

T1 sequence (Q9NZQ7 19-290): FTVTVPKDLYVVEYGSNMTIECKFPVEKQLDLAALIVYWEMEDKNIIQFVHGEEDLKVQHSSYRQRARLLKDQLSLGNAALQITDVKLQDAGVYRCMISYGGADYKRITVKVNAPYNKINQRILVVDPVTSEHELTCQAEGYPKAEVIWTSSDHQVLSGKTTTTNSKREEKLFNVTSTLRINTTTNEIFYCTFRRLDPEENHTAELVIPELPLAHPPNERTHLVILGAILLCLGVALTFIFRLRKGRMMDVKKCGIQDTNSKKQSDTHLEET

kon ([1]; SPR, read-out: association rate constant (ka)) | PD-L1 affinity relative to βH2_mt ([1]; SPR) | association rate constant (ka) ([1]; SPR) | Compound | PD-L1 affinity by SPR sensorgram (comparison in words) ([1]; immobilized PD-L1 proteins, FIG. 4 and 5) | displacement of fβH2_mt from PD-L1 / complex integrity [2] | cell interaction (Rhodamine fluorescence) ([3]; 786-O cells, treated 1 h) | PD-L1 selectivity (786-O vs MCF-7 cells) ([3]; fluorescence microscopy, 786-O vs MCF-7) | cell interaction (Rhodamine fluorescence) [4] | decrease of cell viability compared to cells treated with doxorubicin only [5]
1070 M⁻¹ s⁻¹ | – | – | CC(C)[C@H](NC(=O)[C@@H](NC(=O)[C@@H](N)Cc1c[nH]cn1)C(C)C)C(=O)N[C@@H](Cc1c[nH]c2ccccc12)C(=O)N[C@@H](Cc1c[nH]cn1)C(=O)N[C@@H](CCCNC(=N)N)C(=O)N[C@@H](CCC(=O)O)C(=O)N[C@@H](CO)C(=O)N1CCC[C@H]1C(=O)N[C@@H](CO)C(=O)NCC(=O)N[C@@H](CCC(N)=O)C(=O)N[C@H](C(=O)N[C@@H](CC(=O)O)C(=O)N[C@H](C(=O)N[C@@H](CCCCN)C(=O)N[C@@H](C)C(=O)N[C@@H](C)C(N)=O)[C@@H](C)O)[C@@H](C)O [βH2_mt, HVVWHRESPSGQTDTKAA] (H-HVVWHRESPSGQTDTKAA-NH2; N-terminus and C-terminus assumed) | – | – | – | – | – | –
– | five orders of magnitude higher | 2.52×10^5 | G7-βH2_mt: βH2_mt peptides attached to the surface of generation seven (G7) PAMAM dendrimers, rhodamine labelled; about 30 peptides per dendrimer (HVVWHRESPSGQTDTKAA; also: attached to surface of G7 PAMAM dendrimers, about 30 peptides per dendrimer, rhodamine labelled) | higher affinity to immobilized PD-L1 proteins than G7-βH1_mt; also recorded: higher than that of the wildtype βH2-dendrimer conjugate control (G7-βH2_wt) | dose-dependent displacement of fβH2_mt from PD-L1; also recorded: more effective competitiveness than aPDL1 antibodies | strong cell interactions | high PD-L1 selectivity | interacted significantly less | 8.4±3.8%
